Test results from patent publication US12319739 (F STAR DELTA, dated 2025).

Assays:
hMSLN-His-Avi [1] = biological target: T1, hMSLN-His-Avi (human, UniProt Q13421 296-598, single biotin on the Avi tag in the biotinylated form); test: ratio of SPR KDs
T1 construct: Monomeric; also called human MSLN-His-Avi; hMSLN-Avi-His
Description: (§1) 7.1 Binding of CD137/MSLN mAb2 to Human MSLN Under Avid Conditions—Antigen Capture Method Binding of all mAb^2 to MSLN immobilised on a BIAcore chip was tested to determine the binding affinity to human MSLN under avid conditions, where a high concentration of immobilised antigen is available to allow the antibody to bind avidly. […] The association time was 5 min and the dissociation time was 10 min. Running buffer was HBS-EP (GE Healthcare BR100188). Flow cells were regenerated by injecting Glycine-HCl pH1.5 at a flow rate of 30 μl/min for 30 seconds. Data were analysed by double referencing against a flow cell which was intentionally left blank (no antigen coating). The binding kinetics were fitted with a 1:1 Langmuir model to generate binding association (k_a) and dissociation (k_d) rates. Equilibrium binding constants (K_D) were calculated by dividing the dissociation rate by the association rate for each sample. Data analysis was performed with BiaEvaluation software version 3.2.
(§2) The association time was 5 min and the dissociation time was 5 min. Running buffer was HBS-EP (GE Healthcare BR100188). Flow cells were regenerated by injecting Glycine-HCl pH2.1 at a flow rate of 30 μl/min for 15 seconds. The data was analysed as described in Example 7.1.

[2] = biological target: T2, endogenous cell surface human MSLN (human, UniProt Q13421 296-598); test: flow cytometry, NCI-H226 cells
T2 construct: whole, on cells; The cell line is named under assay; also called cell-surface MSLN on NCI-H226, OVCAR-3 and AsPC-1 cells
T2 sequence (Q13421 other isoform, or with tags, fused parts or gaps limits assumed): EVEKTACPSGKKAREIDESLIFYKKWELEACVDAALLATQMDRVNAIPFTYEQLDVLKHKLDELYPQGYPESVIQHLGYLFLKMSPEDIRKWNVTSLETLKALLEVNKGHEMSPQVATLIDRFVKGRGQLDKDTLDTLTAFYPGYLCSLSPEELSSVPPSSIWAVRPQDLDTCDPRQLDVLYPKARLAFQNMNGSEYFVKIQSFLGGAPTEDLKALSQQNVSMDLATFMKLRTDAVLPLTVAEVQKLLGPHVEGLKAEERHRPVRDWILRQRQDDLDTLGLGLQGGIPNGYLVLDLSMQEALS
Description: (§3) To confirm binding to cell surface MSLN, mAb² listed in Table 9 were analysed for binding to endogenous cell surface MSLN on the human lung cancer cell line NCI-H226. In addition, and because MSLN can be found in blood in a shed soluble form, there is a risk that this circulating MSLN might affect exposure and ultimately potency of our mAb². To confirm that presence of soluble MSLN has minimal impact, additional binding experiments to NCI-H226 cells were performed in the presence of 20 nM soluble MSLN which is 10-20 times the level of soluble MSLN found to be of diagnostic value for defining malignant mesothelioma and lung cancer patients as MSLN positive (Cui et al., 2014). Briefly, NCI-H226 cells (ATCC CRL-5826) were harvested from T175 cell culture flasks using Accutase (Gibco, A11105-01).
(§4) In both cases, cells were centrifuged at 1200 rpm for 3 min and resuspended in ice cold FACS buffer made up of DPBS (Life Technologies, 14190169) and 1% BSA (Sigma-Aldrich, A7906) at 2×10⁶ cells/ml and 50 μl per well was seeded in a 96-well V-bottom plate (Costar, 3894). All antibodies tested were diluted in FACS buffer in 120 μl at a concentration range of 0.01-200 nM (4-fold dilutions). The NCI-H226 cells were then centrifuged, supernatant removed and cells resuspended in 100 μl of each mAb dilution and incubated at 4° C. for 45 min. Cells were washed twice by centrifugation with 150 μl FACS buffer, resuspended in 100 μl containing goat anti-human IgG (γ-chain specific) F(ab')2 fragment-R-Phycoerythrin antibody (Sigma, P8047) diluted 1:1000 in FACS buffer and incubated at 4° C. for 45 min. The cells were washed once with 150 μl FACS buffer and then with 150 μl DPBS, resuspended in 150 μl DPBS containing DAPI (Biotium, 40043) at 1:10.000 and read on the BDCantoII or iQue (Intellicyt).

[3] = biological target: T2, endogenous cell surface human MSLN; test: flow cytometry, NCI-H226 cells + 20 nM soluble MSLN
Description: as §3, §4

hMSLN-His-Avi [4] = biological target: T1, hMSLN-His-Avi; test: SPR, hMSLN-His-Avi immobilised ~100 RU, mAb2 injected
Description: as §1

cMSLN-His-Avi = biological target: T3, cMSLN-His-Avi (cynomolgus, single biotin on the Avi tag in the biotinylated form); test: SPR, mAb2 captured on Protein G, cMSLN-His-Avi in solution
T3 construct: Monomeric; also called cyno MSLN-His-Avi; cMSLN-Avi-His
T3 chain: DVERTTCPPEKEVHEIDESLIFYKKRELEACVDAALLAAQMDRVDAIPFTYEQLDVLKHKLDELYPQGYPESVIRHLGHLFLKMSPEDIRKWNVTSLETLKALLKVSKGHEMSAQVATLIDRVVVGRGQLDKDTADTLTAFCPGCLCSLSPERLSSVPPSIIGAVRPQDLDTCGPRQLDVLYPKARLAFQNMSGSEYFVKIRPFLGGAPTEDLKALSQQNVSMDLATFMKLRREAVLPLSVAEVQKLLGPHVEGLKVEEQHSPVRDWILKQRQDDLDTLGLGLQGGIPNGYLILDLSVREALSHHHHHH
Description: as §2

hMSLN-His-Avi [5] = biological target: T1, hMSLN-His-Avi; test: SPR, mAb2 captured on Protein G, hMSLN-His-Avi in solution
Description: as §2

[6] = biological target: human CD137 on primary human CD8+ T cells (human, UniProt Q07011 24-255); test: cell-based or functional assay
human CD137 on primary human CD8+ T cells, sequence (Q07011 24-255): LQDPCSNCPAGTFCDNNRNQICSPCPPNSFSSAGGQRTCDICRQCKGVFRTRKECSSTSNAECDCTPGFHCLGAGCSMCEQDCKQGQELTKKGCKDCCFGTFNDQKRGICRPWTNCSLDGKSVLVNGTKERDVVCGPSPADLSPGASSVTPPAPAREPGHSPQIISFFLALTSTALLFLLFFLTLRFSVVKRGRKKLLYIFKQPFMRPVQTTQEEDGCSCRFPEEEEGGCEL

T1 sequence (Q13421 other isoform, or with tags, fused parts or gaps): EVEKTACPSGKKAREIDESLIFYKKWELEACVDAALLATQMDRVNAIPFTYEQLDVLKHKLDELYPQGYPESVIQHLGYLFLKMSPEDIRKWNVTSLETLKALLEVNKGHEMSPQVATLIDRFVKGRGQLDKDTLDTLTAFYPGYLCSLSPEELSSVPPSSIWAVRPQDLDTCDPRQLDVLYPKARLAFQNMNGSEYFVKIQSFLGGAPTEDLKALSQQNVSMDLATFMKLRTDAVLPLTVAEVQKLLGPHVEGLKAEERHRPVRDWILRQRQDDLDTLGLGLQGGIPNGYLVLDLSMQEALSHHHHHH

| Binder | KD ratio in solution/immobilised human MSLN (hMSLN-His-Avi [1]) | EC50 [2] [nM] | Emax (MFI) [2] [MFI] | EC50 [3] [nM] | Emax (MFI) [3] [MFI] | Kd (hMSLN-His-Avi [4]) [nM] | Kd (cMSLN-His-Avi) [nM] | Kd (hMSLN-His-Avi [5]) [nM] | Emax (IL-2 pg/ml), NCI-H226 co-culture, Donor A [6] [pg/mL] | Emax (IL-2 pg/ml), NCI-H226 co-culture, Donor B [6] [pg/mL] | IL-2 release EC50, NCI-H226 co-culture, Donor A [6] [nM] | IL-2 release EC50, NCI-H226 co-culture, Donor B [6] [nM] |
| --- | --- | --- | --- | --- | --- | --- | --- | --- | --- | --- | --- | --- |
| FS22-172-003-AA/FS28-185 (bispecific antibody, human IgG1, kappa, L234A L235A, V domains shown, IgG1 mAb^2 with LALA; also called FS28-185 in CD137 mAb^2 format) VH: EVQLLESGGGLVQPGGSLRLSCAASGFTFTTSAMSWVRQAPGKGLEWVSRINPYEGETNYADSVKGRFTISRDNSKNTLYLQMNSLRAEDTAVYYCARGWSIATYYKSAMDYWGQGTLVTVSS VL: EIVLTQSPGTLSLSPGERATLSCRASQSVSSSYLAWYQQKPGQAPRLLIYGASSRATGIPDRFSGSGSGTDFTLTISRLEPEDFAVYYCQQSSYSAPVTFGQGTKVEIKR | 5 | 22.9 | 4930 | 28.4 | 4930 | 50.5 | 294 | 248 | – | – | – | – |
| FS22-172-003-AA/FS28-024 (bispecific antibody, human IgG1, kappa, L234A L235A, V domains shown, IgG1 mAb^2 with LALA; also called FS28-024 in CD137 mAb^2 format) VH: EVQLLESGGGLVQPGGSLRLSCAASGFTLSYSSMSWVRQAPGKGLEWVSFITPSTGYTHYADSVKGRFTISRDNSKNTLYLQMNSLRAEDTAVYYCARRALTFDYWGQGTLVTVSS VL: EIVLTQSPGTLSLSPGERATLSCRASQSVSSSYLAWYQQKPGQAPRLLIYGASSRATGIPDRFSGSGSGTDFTLTISRLEPEDFAVYYCQQASSYPLTFGQGTKVEIKR | 119 | 0.389 | 773000 | 3.05 | 792000 | 0.39 | 170 | 46.5 | 1120 | 1380 | 0.02 | 0.03 |
| FS22-172-003-AA/FS28-256 (bispecific antibody, human IgG1, kappa, L234A L235A, V domains shown, IgG1 mAb^2 with LALA) VH: EVQLLESGGGLVQPGGSLRLSCAASGFTFTNTYMSWVRQAPGKGLEWVSNISPTYSTTNYADSVKGRFTISRDNSKNTLYLQMNSLRAEDTAVYYCARYNSYQGGLDYWGQGTLVTVSS VL: EIVLTQSPGTLSLSPGERATLSCRASQSVSSSYLAWYQQKPGQAPRLLIYGASSRATGIPDRFSGSGSGTDFTLTISRLEPEDFAVYYCQQSYYYPITFGQGTKVEIKR | 34 | 47.1 | 174000 | 52.9 | 200000 | 36 | 848 | 1210 | 1260 | 8590 | 34 | 22.2 |
| FS22-172-003-AA/FS28-024-051 (bispecific antibody, human IgG1, kappa, L234A L235A, V domains shown, IgG1 mAb^2 with LALA) VH: EVQLLESGGGLVQPGGSLRLSCAASGFTLSYSSMSWVRQAPGKGLEWVSFITPSTGYTHYADSVKGRFTISRDNSKNTLYLQMNSLRAEDTAVYYCARRALIFDYWGQGTLVTVSS VL: EIVLTQSPGTLSLSPGERATLSCRASQSVSSSYLAWYQQKPGQAPRLLIYGASSRATGIPDRFSGSGSGTDFTLTISRLEPEDFAVYYCQQASSYPLTFGQGTKVEIKR | 105 | 0.477 | 768000 | 3.06 | 798000 | 0.4 | 153 | 42.4 | 1130 | 1800 | 0.08 | 0.04 |
| FS22-172-003-AA/FS28-024-053 (bispecific antibody, human IgG1, kappa, L234A L235A, V domains shown, IgG1 mAb^2 with LALA) VH: EVQLLESGGGLVQPGGSLRLSCAASGFTLSYSSMSWVRQAPGKGLEWVSFITPSTGYTHYADSVKGRFTISRDNSKNTLYLQMNSLRAEDTAVYYCARRALVFDYWGQGTLVTVSS VL: EIVLTQSPGTLSLSPGERATLSCRASQSVSSSYLAWYQQKPGQAPRLLIYGASSRATGIPDRFSGSGSGTDFTLTISRLEPEDFAVYYCQQASSYPLTFGQGTKVEIKR | 111 | 0.579 | 783000 | 2.77 | 788000 | 0.42 | 166 | 46.4 | 1010 | 1440 | 0.07 | 0.04 |
| FS22-172-003-AA/FS28-256-012 (bispecific antibody, human IgG1, kappa, L234A L235A, V domains shown, IgG1 mAb^2 with LALA) VH: EVQLLESGGGLVQPGGSLRLSCAASGFTFTHTYMSWVRQAPGKGLEWVSNISPTYSTTNYADSVKGRFTISRDNNKNTLYLQMNSLRAEDTAVYYCARYNAYHAALDYWGQGTLVTVSS VL: EIVLTQSPGTLSLSPGERATLSCRASQSVSSSYLAWYQQKPGQAPRLLIYGASSRATGIPDRFSGSGSGTDFTLTISRLEPEDFAVYYCQQSYYYPITFGQGTKVEIKR | 259 | 5.7 | 516000 | 6.36 | 486000 | 3.12 | 712 | 809 | 1550 | 1100 | 1.56 | 1.67 |
